Measured values taken from patent US20220396617A1.

Target: human TIGIT expressed on HEK293A cells (human) (UniProt Q495A1)
Assay: cell-based or functional assay

Sequence of human TIGIT expressed on HEK293A cells (human) (Q495A1 22-244 limits assumed): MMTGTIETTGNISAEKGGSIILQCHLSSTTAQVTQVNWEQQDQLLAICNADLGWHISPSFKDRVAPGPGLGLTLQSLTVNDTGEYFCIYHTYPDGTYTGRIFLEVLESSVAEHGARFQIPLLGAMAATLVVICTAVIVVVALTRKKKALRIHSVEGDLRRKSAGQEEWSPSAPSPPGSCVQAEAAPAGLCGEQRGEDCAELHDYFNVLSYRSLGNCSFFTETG

B1: Etigilimab (antibody, INN chains, looked up, human IgG1, V domains shown)
VH: QVQLQESGPGLVKPSETLSLTCAVSGYSITSDYAWNWIRQPPGKGLEWIGYISYSGSTSYNPSLRSRVTISRDTSKNQFFLKLSSVTAADTAVYYCARRQVGLGFAYWGQGTLVTVSS
VL: DIQMTQSPSSLSASVGDRVTITCKASQDVSTAVAWYQQKPGKAPKLLIYSASYRYTGVPSRFSGSGSGTDFTFTISSLQPEDIATYYCQQHYSTPWTFGQGTKVEIK
In the case of B1, the NK92-mediated ADCC against HEK293A/human TIGIT cells, EC50 is reported as 0.0236 nM.
